Test results published in patent publication US20230398228A1, “ERIBULIN-BASED ANTIBODY-DRUG CONJUGATES AND METHODS OF USE” (EISAI R&D MANAGEMENT CO., LTD., priority 2016, published 2023).

Assays:
[1] = SEC-HPLC aggregation analysis; assay type: physicochemical
Experimental: The antibody aggregation was analyzed by size-exclusion, high-performance liquid chromatography (SEC-HPLC) using an Agilent 1100. The mAb was diluted to 1 mg/mL in DPBS. The antibody (20 μL) was injected onto a TSKgel® SuperSW guard column (4.6 mm×3.5 cm, 4 μm pore size, Tosoh Bioscience), followed by a TSKgel® SuperSW3000 column (4.6 mm×30 cm, 4 μm pore size), eluted from the column with 0.1 M sodium phosphate containing 0.15 M NaCl and 0.05% NaN3, at pH 7.4, at a flow rate of 0.3 mL/min for 20 min. All data were analyzed using Agilent ChemStation software. Percent aggregation was calculated as [PAaggregate/PAtotal]*100, where PA=integrated peak area.
ADC was diluted to 1 mg/mL in DPBS. ADC (10 μL) was then injected onto an Advanced SEC 300A guard column (4.6 mm×3.5 cm, 2.7 μm pore size, Agilent), followed by a AdvancedBio 300A column (4.6 mm×30 cm, 2.7 μm pore size). ADC was eluted from the column with 0.1 M sodium phosphate containing 0.15 M NaCl and 5% IPA, pH 7.4 at a flow rate of 0.25 mL/min for 28 min. All data were analyzed using Agilent ChemStation software. Percent aggregation was calculated as [PAaggregate/PAtotal]*100, where PA=integrated peak area.

NCI-H2110 cells = assay: Crystal Violet cytotoxicity assay (Example 4), NCI-H2110; assay type: cell-based, human; conditions: mean of replicate experiments, read-out: Cytotoxicity IC50 (nM), NCI-H2110 (FR^med, MSLN^med)
Experimental: (§1) Test reagents were serial diluted 1:3 in 2 mL deep-well dilution plates, starting at 200 nM (10 dilutions total). […] Medium was then discarded. […] Plates were read at 570 nm. Data was analyzed using GraphPad Prism 6.

[2] = DAR analysis by LC-MS (UPLC/ESI-MS, reverse-phase LC-MS); conditions: reverse-phase LC-MS
Experimental: ADCs were deglycosylated using PNGase F (New England BioLabs). G7 buffer (10 μL) and PNGase F (2 μL) were added to the mAb (90 μL, 1 mg/mL in DPBS). The reaction was incubated in a Discover microwave (CEM) for 2 cycles: (1) microwave power 10 W, 37° C., 10 min, followed by a 5-min pause; (2) microwave power 2 W, 37° C., 10 min. A portion of the sample was reduced by adding DTT to a final concentration of 20 mM, followed by incubation at 60° C. for 3 min. Samples were then analyzed using a Waters Acquity Ultra Performance Liquid Chromatography (UPLC) and quadrupole time of flight (Q-Tof) Premier mass spectrometer. Samples (0.5-2 μg each) were injected onto a MassPrep™ micro desalting column at 65° C., eluted from the column with a 5 min equilibration in 95% of mobile phase A, a 10 min gradient (5-90% B), and a 10 min re-equilibration in 95% of mobile phase A, at 0.05 mL/min. Mobile phase A was 0.1% formic acid in water. Mobile phase B was 0.1% formic acid in acetonitrile. The Q-Tof mass spectrometer was run in positive ion, V-mode with detection in the range of 500-4000 m/z. The source parameters were as follows: capillary voltage, 2.25 kV (intact antibody)-2.50 kV (reduced antibody); sampling cone voltage, 65.0 V (intact antibody) or 50.0 V (reduced antibody); source temperature, 100° C.; desolvation temperature, 250° C.; desolvation gas flow, 550 L/hr. The protein peak was deconvoluted using the MassLynx® MaxEnt 1 function. Relative intensities of each unconjugated, singly-conjugated, and multiply-conjugated heavy and light chain masses were combined to calculate the overall DAR using the formula:
2[[ILC+1+2(ILC+2)+3(ILC+3)+ . . . n(ILC+n)]/ΣILCtot]+2[[IHC+1+2(IHC+2)+3(IHC+3)+ . . . n(IHC+n)]/ΣIHCtot]
where ILC+1 is mass intensity of light chain conjugated with one cytotoxin, ILC+2 is mass intensity of light chain conjugated with two cytotoxins, etc. IHC are the intensities from the corresponding conjugated heavy chains, and ΣILCtot and ΣIHCtot are the combined intensities of all unconjugated and conjugated light chains and heavy chains, respectively.
DAR was also analyzed using an LC-MS method with a Waters Alliance HPLC with SQD/PDA detection. Samples were injected onto a Proteomix RP-1000 column ([…], 1000A, 4.6 mm×15 cm, Sepax) at 65° C., and eluted with a 3 min equilibration in 25% B, a 27 min linear gradient from 25%-55% B, a 5 min hold at 55% B, a 1 min change to 90% B, a 5 min hold at 90% B, a 1 min change back to 25% B, and a 5 min reequilibration at 25% B. Mobile phase A was 0.1% TFA in water, and mobile phase B was 0.1% TFA in acetonitrile. The elute was then split (10:1) into PDA and SQD detectors. The SQD detector was set up as ES positive, capillary voltage at 3.2 kV, cone voltage at 40 V, extractor at 3 V, and RF lens at 0.2 V, source temperature at 150° C., and desolvation temperature at 250° C. Mass data was acquired at 200-2000 m/z for 40 min, continuum mode, scan time 1 second. Data was analyzed and deconvoluted offline using MassLynx and MaxEnt1. DAR was calculated using the formula:
2[[AUCLC+1+2(AUCLC+2)+3(AUCLC+3)+ . . . n(AUCLC+n)]/[…]]+2[[AUCHC+1+2(AUCHC+2)+3(AUCHC+3)+ . . . n(AUCHC+n)]/ΣAUCHCtot]
where AUCLC+1 is the area under the curve of the light chain peak conjugated with one cytotoxin, AUCLC+2 is the area under the curve of the light chain peak conjugated with two cytotoxins, etc. AUCHC is the area under the curve of the corresponding heavy chains, and ΣAUCLCtot and ΣAUCHCtot are the combined area under the curve of all unconjugated and conjugated light chains and heavy chains, respectively.

IGROV1 cells = assay: Crystal Violet cytotoxicity assay (Example 4), IGROV1; assay type: cell-based, human; conditions: mean of replicate experiments, read-out: Cytotoxicity IC50 (nM), IGROV1 (FR^hi, MSLN^neg)
Experimental: as §1

| Substance | SEC-HPLC Analysis % Aggr. [1] | SEC-HPLC Analysis % Frag. [1] | SEC-HPLC Analysis % Monomer [1] | IC50 (NCI-H2110 cells) | DAR (LC-MS) [2] | IC50 (IGROV1 cells) |
| --- | --- | --- | --- | --- | --- | --- |
| MORAb009-PEG2-eribulin | 1.15% | 1.74% | 97.11% | 50 nM | 4.55 | 42.8 nM |
| MORAb009-PEG4-eribulin | 1.03% | 1.84% | 97.13% | 31.6 nM | 4.48 | 76.3 nM |
